Assay: yeast display, Sf9 membrane polyspecificity reagent, FACS + sequencing; frameworks hold sequencing errors
Outline: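 Nanobodies from a synthetic yeast display library (Saccharomyces cerevisiae BJ5465), induced 36–48 hours with galactose, were stained 1 hour at 4 °C with 10% biotinylated, detergent-solubilized Sf9 membrane reagent, enriched on streptavidin microbeads, then FACS-sorted. Anti-HA (expression) and streptavidin (reagent binding) fluorescence set low and high (top ~1%) gates. Polyreactivity labels come from the gate of origin. Genes were colony-PCR amplified, MiSeq 2 × 250 sequenced and filtered by CDR length.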

| Sequence | polyreactivity (PSR sort gate) |
| --- | --- |
| QVQLVESGGGLVQAGGSLRLSSAASGSTSYYYVMGWYRQAPGKERELVAAISNGDTTNYADSVKGRITITRDNEKNTVYLQMNSLKPEVTAVDYCAAVYYRSFHDYGYWGQGTQVTVSS | low polyreactivity |
| QVQLVESGGGLVQAGGSLRLSSAASGTIFRSYSMGWSRQAPGKERELVASITWRGGRTYYADSVKGRFTISRDNAKNTVYLQMNSLKPEDTAVDFCAVLWTPAGGYYFRYDYWGQGTQVTVSS | low polyreactivity |
| QVQLVESGGGLVQAGGSLRLSSAASGYIFDWNAMGWYRQAPGKERELVAAISSGGRTNYADSVKGRFTISRDNAKNTVYLQMNSLKPEDTAVYYCAAVYTDPYVEYDYWGQGTQVTVSS | low polyreactivity |
| QVQLVESGGGLVQAGGSLRLSSAAYGRTFRPYAMGWYRQAPGKERELVAAIDSSGTSTYYADSVKGRFTISLDNAKNTVYLQMNSLKPEDTAVYYCAAGSDPTGRRYDYWGQGTQVTVSS | low polyreactivity |
| QVQLVESGGGLVQAGGSLRLSSAGSGSPFRSNAMGWYRQAPGKERELVAAISQRGGSTYYADSVKGRFTISRDNAKNPVYLQMNSLKAVDTAVYYCAKVSKRVGFPTAMNYWGQGTQVTVSS | high polyreactivity |
| QVQLVESGGGLVQAGGSLRLSSASSGFIFRGNAMVWSRQAPGKERELVAAISWSGGNTYYADSVKGRFTISRDYAKNTVYLQMNSMIPEDTAVYYCNGVKAYYRWFLPRYQYNFWGQGTQVTVSS | high polyreactivity |
| QVQLVESGGGLVQAGGSLRLSSASSGFTFTFYAMGWYRQEPGKERELVAAISKGGGSTSYADSVKGRFTISRDNAKNTVYLQMNCLKPEETAVYYCAARYYYSRSRLYYYWGQGTQVTVSS | high polyreactivity |
| QVQLVESGGGLVQAGGSLRLSSASSGSIFESNALGWYRQAPGKEREFVAAIDQNDGSTNYADSVKGRFTISRDNAKNTVYLQMYSLNPEDTAVYYCAASPGTASYDYWGQGTQVTVSS | low polyreactivity |
| QVQLVESGGGLVQAGGSLRLSSDASGRIFRYYSMGWYRQAPGKERELVAAITRGGYTNYADSVKGRFTISRDNAKITVYFQMNSLKQEDTAVYYCATRQSWYPRWMDYWGQGTQVTVSS | high polyreactivity |
| QVQLVESGGGLVQAGGSLRLSSPASGSTYVVYAMGWYRPAPGKERELVADITRSGGSTYYADSVKGRFTISRDNAKNTVYLQMNSLKPEDSAVYYCAAVRRNGPYKYYYWGQGTQVTVSS | high polyreactivity |
| QVQLVESGGGLVQAGGSLRLSSSASGGTFWDYAMGCYRQAPGKERELVAAINWSGDSTYADSVKGRFTISRDNAKNTCYLQMTSLKPEDTAVYYCNADVWYYRMDYWGQGTQVTVSS | low polyreactivity |
| QVQLVESGGGLVQAGGSLRLSWAAAGFIFYYNAMGRYRQAPGKERELVAAIDESGGSTYYADSVKGRFTISRDNATNTVYLQLNSLKPEDSAVYYCDTDDTWSISYGWYWFTYEYWGQGTQVTVSS | low polyreactivity |
| QVQLVESGGGLVQAGGSLRLSWAASGFTFYRYAMGWYRQAPGKERELVAAITRSGSRTYYADSVKGRFTISRDNAKNTVYVQMNSLKPEDTAVYYCNTDGGDHPTARYGYWGQGTQVTVSS | high polyreactivity |
| QVQLVESGGGLVQAGGSLRLSWAASGIILQEYTMGWYRPAHWKERELVAAISVRGGSTYYADSVKGRFTISRDHAKNTVYLQMNSLKPEDTAVYYCAAAYYRRPPGFNYWGQGTEVTVSS | high polyreactivity |
| QVQLVESGGGLVQAGGSLRLSWAASGRTIVYYAMGWYSQAPGKEREFVAAISRSGGRTSYADSVKGRFTISRDNAKNTVYLHMNILKPDDTAVYYCAAEKRTQPTSREYYWGKGTQVTVSS | high polyreactivity |
| QVQLVESGGGLVQAGGSLRLSWAASGSIFFLYAMGWYRQAPAKERELVAAITSIGGSTYADSVKGRFTISRDNAKNTVYLQMNSLKPEDTAVYYCNTDEYPLTVQVQYYYWGQGTEVTVSS | low polyreactivity |
| QVQLVESGGGLVQAGGSLRLSWAASGSIFGWYGMGWYSPAPGKERELVAAITRGGSTYYADSVKGRFTISRDNAKNTVYLQMNSLKPEDTAGYYCAKRSGQQYGGYGYWGQGTQVTVSS | low polyreactivity |
| QVQLVESGGGLVQAGGSLRLSWAASGSNFDAYAMGWYRPAPGKERELVAAINARGGSTYYADSVKGRFTISRDNAKNTVYLQMNSLKPEETAVYDCNRLSRVRRYIYDYWGQGTQVTVSS | high polyreactivity |
| QVQLVESGGGLVQAGGSLRLSWAAYGRIFLTNAMGWYRQAPGKERELVAAITSGGSTYYADSVKGRFTISRDNAKNTVYLQMNSLKPEDTAVYYCKADTDRYWPYEYDYWGQGTQVTVSS | low polyreactivity |
| QVQLVESGGGLVQAGGSLRLSWAAYGRTILWYTMGWYRQAPGKERDLVADISSSGGTTFYADSVKGRFTISRDNAKNTVYLQMNSLKAVDNAVYYCKRNARKLRTVHSSVVGLDYWGQGTQVTVSS | low polyreactivity |
| QVQLVESGGGLVQAGGSLRLTCAASALTFVWYAMGWYRQATGKERELVAAIRGGGSTYYADSVKGRFTISRDNAKNTVYLQMNRLIPEDTAVYYCAAQRSPYYTFYYWGQGTQVTVSS | high polyreactivity |
| QVQLVESGGGLVQAGGSLRLTCAASARTFFGYAMGWYRQAHGKARELVARIRWSTTYYADSVKGRFTISRDNAKNTVYLQMNSLKPEDTAVYYCNAVYYYVGYRYDYWGQGTQVTVSS | high polyreactivity |

| Sequence | polyreactivity (PSR sort gate) |
| --- | --- |
| QVQLVESGGGLVQAGGSLRLTCAASGFIFAHYAMGWYRQAPGKERELVAAISSRGGSTYYADSVKGRFTISRDNAKNTVYLQMNSLKPEDTAVYYCAKARHRPARGYEYWGQGTQVTVSS | high polyreactivity |
| QVQLVESGGGLVQAGGSLRLTCAASGFIFGSYSMGWYRQAPGKERELVAAITSGGSTYYADSVKGRFTISRDNAKNTVYLQMNSLKPEDTAVYYCAKYHWRLSFSRYPYDYWGQGTQVTVSS | high polyreactivity |
| QVQLVESGGGLVQAGGSLRLTCAASGFIFNFYAMGWYRQAPGKERELVAAISRNGGSTYYADSVKGRFTISRDNAKNTVYLQMNSLKPEDTAVYYCNAGGSYGDFGYWGKGTQVTVSS | high polyreactivity |
| QVQLVESGGGLVQAGGSLRLTCAASGFTFDRYAMGWYRQAPGKEREVVAAISRSGTSTYYADSVKGRFTISRDNAKNTVYLQMNSLKPEDTAVYYCATRYNVYFPSRRYQYDYWGQGSQVTVSS | high polyreactivity |
| QVQLVESGGGLVQAGGSLRLTCAASGFTFRYYAMGWSRQAPGKERELVATISTGSGVSTYYADSVKGRFTISRDNAKNTVYLQMNSLKPEDTAVYYCAAVFGWRRYVTYDYWGQGTQVTVSS | low polyreactivity |
| QVQLVESGGGLVQAGGSLRLTCAASGGTFIKNAMGWYRQAPGKERELVAAISWSGGRTYYADSVKGRFTITRDNPKNTVYLPMNSLKPEDTAVYYCNARYAGRLSYSYEYWGQVTQVTVSS | high polyreactivity |
| QVQLVESGGGLVQAGGSLRLTCAASGIIFCDYVMGWYRQEPGKESELVAAISASGGRTYYADSVKGRFTISRDNAKNTVYLQMTSLKPEDTAVYYCNKRYRNRYSYSEGDYWGQGTQLTVSS | high polyreactivity |
| QVQLVESGGGLVQAGGSLRLTCAASGIIFDDYAMGWYRQAPGKERELVAAISWIGTTTYYADSVKGRFTISRDNAKKTVYFQMNILKPEDTAVYYCNARPYPSYKYDYWGQGTQVTVSS | high polyreactivity |
| QVQLVESGGGLVQAGGSLRLTCAASGIIFFKNAMGWYRQAPGKERELVASINRSGGSTYYADSVKGRFTISRDNAKNTGYFQMNSLKPEDTAVFYCNARLTLRSYDYWGLGTQVTVSS | low polyreactivity |
| QVQLVESGGGLVQAGGSLRLTCAASGIIFGHYAMGWYRQAPGKERELVAAITASSGNTYYADSVKGRFTISRDNAKNTVYLQMNSLKPEDTAVYYCAAVSYSSYRYDYWGQGTQVTVSS | high polyreactivity |
| QVQLVESGGGLVQAGGSLRLTCAASGIIFYGYAIGWYRQAPGKERQLVAAISSGGGTNYADSVKGRFTISRDNAKNTVYLQMNSLKPEDTAVYYCAARQYRRVKQGNYWGQGTQVTLSS | high polyreactivity |
| QVQLVESGGGLVQAGGSLRLTCAASGIIFYIYAMGWYRQAPGKERELVAGISWRGGSTSYADSVKGRFTISRDNAKNTVYLQMNSLKPEDTAVYYCAAEVYSWDGYDYWGQGTQVTVSS | low polyreactivity |
| QVQLVESGGGLVQAGGSLRLTCAASGITFQYYVMGWYRHAPGKERELVAAITRRGGSTYYADSVKGRFTISRDNAKNTVYLQMNSLKPEDTAVYYCAAAITYLPAYRYNYWGQGTQVTVSS | high polyreactivity |
| QVQLVESGGGLVQAGGSLRLTCAASGLIFAENAMGWYRQAPGKERELVASITKSGGRTYYADSVKGRFTISRDNAKNTVYLQMNSLKPEDTAVYDCAAISYFPLRTRYERWFYYWGQGTQVTVSS | high polyreactivity |
| QVQLVESGGGLVQAGGSLRLTCAASGLTFFYYAMGWYRQAPGKERELVAGISRSGGSTYYADSVKGRFTISRDYAKNTVYLQMNSLKPEDTAVYYCAKRTLVASYIYREGEYWGQGTQVTVSS | high polyreactivity |
| QVQLVESGGGLVQAGGSLRLTCAASGLTFPVYAKGWYRQAPGKEREFVAAISYSAGRTYYADSVKGRFTISRDNAKNTVYLQMNRLKPEDTAVYYCAAATYYSIYDYWGQGTQVTVSS | high polyreactivity |
| QVQLVESGGGLVQAGGSLRLTCAASGLTFYYYAMGRYRQATGKETELVASISTGGKKYYADSVKGRFTISRDNANNTVYLQMNSLKPEDTAVYYCAADRYDSSQFYYWGQGTQLTVSS | low polyreactivity |
| QVQLVESGGGLVQAGGSLRLTCAASGNIFDLYAMGWYRQAPGTERELVASITSDGITYYADSVKGRFTISRDNAKNTVYLQMNSLKPEDSAVYYCAVVRSYRYLPRGDYWGQGTQVTVSS | low polyreactivity |
| QVQLVESGGGLVQAGGSLRLTCAASGNNYLDNAMGWYRQAPGKERELVASITRSGSRTYYADSVKGRFTISRDNAKNTGYFQMNSLKPEDTAVFYCNAGVNERQYDYWGLGTQVTVSS | high polyreactivity |
| QVQLVESGGGLVQAGGSLRLTCAASGRIFFYYSMGWYRQAPGKERELVAAIRSGGSTNYADSVKGRFTISRDNAKNTVYLQMYILKPEDTAGYYSAAHPTRYYTPRYYYWGLGTQVTVSS | high polyreactivity |
| QVQLVESGGGLVQAGGSLRLTCAASGRIFGRNTMGWYRQAPGKEMELVAAISSSGGSTRYADSVKGRFTISRDNAKNTVYIQMNSLKPEDTALYYCAAVRNRHGYDYWGKGTQVTVSS | high polyreactivity |

Reference: the nanobody polyreactivity screen of Harvey et al. (2022)
